According to patent publication US20230071765A1, “COMPOSITIONS HAVING THIOREDOXIN ACTIVITY AND RELATED METHODS” (ORPRO THERAPEUTICS, INC., priority 2020, published 2023):

Tests used:
[1] = system: CF patient sputum on wild type rat trachea; assay: CF sputum transport ex vivo on excised rat trachea (μOCT); parameters: species or system human sputum; settings: sputum treated 2 hrs; ORP100S 3 mM, DTT 1.6 mM, DNase 10 or 25 μg/ml; PBS 0.97±0.17
Protocol: To determine the effect of ORP100S on CF sputum transportability, sputum specimens spontaneously expectorated from 4 CF patients hospitalized for pulmonary exacerbation were collected and stored at 4° C. before being divided into 200 μL aliquots and treated with ORP100S (3 mM), PBS, DTT (1.6 mM), or DNase (10 or 25 μg/ml) on the day of or day following collection. Upon treatment, sputum aliquots were placed in a 37° C. water bath for 2 hrs and then applied (3 μl per sample) for μOCT imaging to the distal end of trachea excised from adult non-CF rats. Trachea were washed 2× with 500 μl of PBS before sputum addition. Sample conditions were applied in triplicate in random order at distinct anatomic locations—2 washes using 500 μl of PBS were performed between each sample addition—and at least 3 images were collected from each region of interest. Confirmation of trachea viability was obtained by imaging with PBS upon completion of the experiment.
One-micron resolution spectral domain μOCT was used to obtain measurements of mucociliary transport (MCT) rate and ciliary beat frequency (CBF) in HBE monolayers and of MCT rate of sputum ex vivo. This first-in-kind, high-speed (40 frames per second, 512 lines per frame) microscopic reflectance imaging modality enables simultaneous anatomic imaging in cell cultures and intact tissues that readily distinguishes the properties of CF compared to normal epithelia (Liu L, Chu K K, Houser G H, Diephuis B J, Li Y, Wilsterman E J, Shastry S, Dierksen G, Birket S E, Mazur M, et al., 2013, Method for quantitative study of airway functional microanatomy using micro-optical coherence tomography, PLoS One 8(1):e54473; Tuggle K L, Birket S E, Cui X, Hong J, Warren J, Reid L, Chambers A, Ji D, Gamber K, Chu K K, et al., 2014, Characterization of defects in ion transport and tissue development in Cystic Fibrosis Transmembrane Conductance Regulator (CFTR)-knockout rats. PLoS One 9(3):e91253). In addition to MCT rate and CBF, μOCT also has the capability to assess physical characteristics of the airway surface liquid. Images were captured, and MCT rate and CBF calculated, as described in the preceding references.
The effect of ORP100S on mucus clearance using intact rat trachea, which include the complexities of the airway surface such as gland expression of a fully differentiated mucosal surface, was further evaluated. […] MCT was measured by projecting a cross-sectional line through the mucus through time, with the slope of the particle trajectories indicating velocity. […]

pediatric patients = settings: human, in vivo; cited from earlier work

B1: DNase: recombinant human DNase I (protein, UniProt P24855 23-282, looked up)
Deoxyribonuclease-1: LKIAAFNIQTFGETKMSNATLVSYIVQILSRYDIALVQEVRDSHLTAVGKLLDNLNQDAPDTYHYVVSEPLGRNSYKERYLFVYRPDQVSAVDSYYYDDGCEPCGNDTFNREPAIVRFFSRFTEVREFAIVPLHAAPGDAVAEIDALYDVYLDVQEKWGLEDVMLMGDFNAGCSYVRPSQWSSIRLWTSPTFQWLIPDSADTTATPTHCAYDRIVVAGMLLRGAVVPDSALPFNFQAAYGLSDQLAQAISDHYPVEVMLK
[1]
  MCT rate of treated sputum: 2.30±0.28 mm/min
Pediatric patients
  pediatric patients with clinical deterioration in lung function: 6-30%
